Laboratory results from article PMC10765524.
*1 amine or outer side, *2 acyl side, *3 side chain or, on linkers, in order; H or OH if unused. Where no end group is shown, it is not given here. [ ]: non-standard residue; d: D form. tpS = thiophosphoserine, O=C([C@H](COP(O)(O)=S)N[*:1])[*:2]

Target: PP2A:B55 holoenzyme (PP2Aa, B55, PP2Ac) (UniProt P30153)
Sequence (P30153 9-589, chain 1 of 3): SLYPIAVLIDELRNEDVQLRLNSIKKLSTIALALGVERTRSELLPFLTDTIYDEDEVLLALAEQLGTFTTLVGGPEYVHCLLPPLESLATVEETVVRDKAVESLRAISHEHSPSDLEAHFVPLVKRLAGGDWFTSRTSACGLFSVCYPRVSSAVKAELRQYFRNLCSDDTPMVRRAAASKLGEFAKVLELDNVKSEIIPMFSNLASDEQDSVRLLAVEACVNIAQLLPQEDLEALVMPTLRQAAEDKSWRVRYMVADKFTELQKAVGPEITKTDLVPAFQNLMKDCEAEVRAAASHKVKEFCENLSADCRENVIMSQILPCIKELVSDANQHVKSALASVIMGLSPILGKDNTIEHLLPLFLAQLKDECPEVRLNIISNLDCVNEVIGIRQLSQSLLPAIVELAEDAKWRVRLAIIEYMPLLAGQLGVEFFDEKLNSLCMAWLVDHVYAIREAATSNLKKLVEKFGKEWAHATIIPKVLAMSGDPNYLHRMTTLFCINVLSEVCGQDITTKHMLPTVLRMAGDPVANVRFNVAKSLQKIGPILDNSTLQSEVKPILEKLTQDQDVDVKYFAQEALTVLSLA
Sequence (P63151 whole entry, chain 2 of 3, further chain): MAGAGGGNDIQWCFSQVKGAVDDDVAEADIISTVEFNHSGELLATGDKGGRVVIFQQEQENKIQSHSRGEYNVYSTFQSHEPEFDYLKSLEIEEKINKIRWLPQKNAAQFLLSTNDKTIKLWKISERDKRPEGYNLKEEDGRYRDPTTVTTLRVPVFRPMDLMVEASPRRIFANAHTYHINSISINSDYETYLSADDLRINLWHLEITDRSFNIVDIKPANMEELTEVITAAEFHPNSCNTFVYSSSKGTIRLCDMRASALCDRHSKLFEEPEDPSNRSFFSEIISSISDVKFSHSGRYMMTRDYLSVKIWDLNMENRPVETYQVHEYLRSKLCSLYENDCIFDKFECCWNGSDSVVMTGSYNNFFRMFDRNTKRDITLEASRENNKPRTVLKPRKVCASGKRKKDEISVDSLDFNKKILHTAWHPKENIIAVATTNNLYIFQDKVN
Sequence (P67775 whole entry, chain 3 of 3, further chain): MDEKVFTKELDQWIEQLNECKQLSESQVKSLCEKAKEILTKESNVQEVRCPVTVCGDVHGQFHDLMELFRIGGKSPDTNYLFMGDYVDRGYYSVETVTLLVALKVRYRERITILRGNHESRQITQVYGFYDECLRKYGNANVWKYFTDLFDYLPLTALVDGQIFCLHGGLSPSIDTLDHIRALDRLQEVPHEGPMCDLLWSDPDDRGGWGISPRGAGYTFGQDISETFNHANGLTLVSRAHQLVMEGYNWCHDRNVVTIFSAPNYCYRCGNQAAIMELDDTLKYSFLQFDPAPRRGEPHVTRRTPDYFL

IC50 of PP2A:B55 inhibition (DiFMUP), against tpARPP19: > 50 fold
B1: tpARPP19_(19–75) (domain or fragment)
chain: DKVTSPEKAEEAKLKARYPHLGQKPGGSDFLRKRLQKGQKYFD[tpS]GDYNMAKAKMKNK
modifications: also: thiophosphorylated, site not given here
